# Target: the molecule itself
# Assay: cryo-EM structure; single-particle cryo-EM of the detergent-solubilised, amphipol-stabilised ~1-MDa XcpQ multimer flash frozen on vitreous ice; Titan Krios, Gatan K2 Summit; 18,000+ particles; 2D class averages and 3D reconstruction under C15 symmetry, 3.6 Å
protein,measurement,value
"XcpQ secretin of the Pseudomonas aeruginosa PAO1 type 2 secretion system (natural protein, XcpQ, the secretin of the ancestral T2SS of Pseudomonas aeruginosa PAO1; four N domains (N0-N3), secretin domain (Pfam PF00263), S domain; numbers count on: the mature protein; N0 domains not seen and N1 domains poorly resolved in the map, though part of the purified protein; also called XcpQ secretin complex; XcpQ multimer; copies: 15) ENSGGNAFVPAGNQQEAHWTINLKDADIREFIDQISEITGETFVVDPRVKGQVSVVSKAQLSLSEVYQLFLSVMSTHGFTVVAQGDQARIVPNAEAKTEAGGGQSAPDRLETRVIQVQQSPVSELIPLIRPLVPQYGHLAAVPSANALIISDRSANIARIEDVIRQLDQKGSHDYSVINLRYGWVMDAAEVLNNAMSRGQAKGAAGAQVIADARTNRLIILGPPQARAKLVQLAQSLDTPTARSANTRVIRLRHNDAKTLAETLGQISEGMKNNGGQGGEQTGGGRPSNILIRADESTNALVLLADPDTVNALEDIVRQLDVPRAQVLVEAAIVEISGDIQDAVGVQWAINKGGMGGTKTNFANTGLSIGTLLQSLESNKAPESIPDGAIVGIGSSSFGALVTALSANTKSNLLSTPSLLTLDNQKAEILVGQNVPFQTGSYTTNSEGSSNPFTTVERKDIGVSLKVTPHINDGAALRLEIEQEISALLPNAQQRNNTDLITSKRSIKSTILAENGQVIVIGGLIQDDVSQAESKVPLLGDIPLLGRLFRSTKDTHTKRNLMVFLRPTVVRDSAGLAALSGKKYSDIRVIDGTRGPEGRPSILPTNANQLFDGQAVDLRELMTE",stoichiometry N,15

# Source: PMC5646249, “Structural Basis of Type 2 Secretion System Engagement between the Inner and Outer Bacterial Membranes” (mBio, 2017)
